# In article PMC5425128, “Functional human GRIN2B promoter polymorphism and variation of mental processing speed in older adults”:
# T1: Elk-1 (human, UniProt P19419 1-428)
# T1 sequence: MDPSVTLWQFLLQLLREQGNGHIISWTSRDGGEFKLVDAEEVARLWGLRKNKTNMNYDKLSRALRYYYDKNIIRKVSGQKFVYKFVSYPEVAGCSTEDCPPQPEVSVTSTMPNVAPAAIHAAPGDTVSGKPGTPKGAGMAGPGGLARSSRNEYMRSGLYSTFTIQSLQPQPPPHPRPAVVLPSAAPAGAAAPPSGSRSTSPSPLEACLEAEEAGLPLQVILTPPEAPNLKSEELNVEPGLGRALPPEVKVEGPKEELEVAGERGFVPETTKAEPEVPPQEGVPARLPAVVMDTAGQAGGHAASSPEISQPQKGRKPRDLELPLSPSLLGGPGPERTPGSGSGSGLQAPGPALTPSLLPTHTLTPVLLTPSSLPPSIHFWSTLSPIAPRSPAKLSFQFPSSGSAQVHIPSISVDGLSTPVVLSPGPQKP
# B1: GRIN2B A allele (rs3764030 A) (dsDNA)
# DNA 1: CATCTCCGGGGAACACGCGAA
# DNA 2: TTCGCGTGTTCCCCGGAGATG
# Target: T1, Elk-1
# Experiment: EMSA; 1 ug Elk-1, 10 mM MgCl2, no poly(dI-dC); 50 mM HEPES pH 7.5, 10 mM MgCl2, 5% glycerol, 1 mM DTT, 0.3% BSA, 1 mM EDTA; 1 h on ice; 6% gel (HEPES buffer pH 6.3), no poly(dI-dC)
# Details: protein: commercial; blunt
binder,measurement,value
B1,binding result,binds
